Numbering of substitutions follows the chain as printed. Names may count otherwise.
Columns and labels:
[1] = tested on: mutant form of α-Gal A expressed in HEK-293 cells; assay: HEK assay (GLP HEK / Migalastat Amenability Assay): α-Gal A activity in lysates of transiently transfected HEK-293 cells incubated with or without 10 μM migalastat; type: cell-based, human; settings: for Absolute increase (% WT) / Relative increase: 10 μM migalastat versus baseline; for Baseline α-Gal A activity (% WT): absence of migalastat; for Baseline α-Gal A activity (% WT) / 10 μM migalastat α-Gal A activity (% WT): percentage of baseline wild-type α-Gal A activity; for Baseline α-Gal A activity (% WT) / Baseline α-Gal A activity / 10 μM migalastat α-Gal A activity / 10 μM migalastat α-Gal A activity (% WT): mean ± SEM; for Baseline α-Gal A activity / 10 μM migalastat α-Gal A activity: lysates of HEK-293 cells transiently transfected with the mutant form; for Baseline α-Gal A activity: incubated 5 days in absence of migalastat; for 10 μM migalastat α-Gal A activity: incubated 5 days with 10 μM migalastat; for 10 μM migalastat α-Gal A activity (% WT): with 10 μM migalastat
In short: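 Activity reported as 4-MU released (nmol/mg/hr), mean±SEM, from lysates of transiently transfected HEK-293 cells expressing mutant α-Gal A, cultured with or without 10 μM migalastat.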

[2] = tested on: active site of wild-type α-Gal A and specific mutant forms of α-Gal A; settings: selective and reversible binding; cited from earlier work

For `OC[C@H]1NC[C@H](O)[C@@H](O)[C@H]1O` [migalastat, (2R,3S,4R,5S)-2-(hydroxymethyl) piperdine-3,4,5-triol, reference compound], the “in vitro response to incubation with migalastat (amenability criteria)” value ([1]; novel α-Gal A mutations listed in Table 2, HEK-293 lysates, 10 μM migalastat, 5 days) is given as “met amenability criteria” and the “binding to the active site of α-Gal A” value [2] is given as “high affinity”.

B1: S371C (protein)
chain: MQLRNPELHLGCALALRFLALVSWDIPGARALDNGLARTPTMGWLHWERFMCNLDCQEEPDSCISEKLFMEMAELMVSEGWKDAGYEYLCIDDCWMAPQRDSEGRLQADPQRFPHGIRQLANYVHSKGLKLGIYADVGNKTCAGFPGSFGYYDIDAQTFADWGVDLLKFDGCYCDSLENLADGYKHMSLALNRTGRSIVYSCEWPLYMWPFQKPNYTEIRQYCNHWRNFADIDDSWKSIKSILDWTSFNQERIVDVAGPGGWNDPDMLVIGNFGLSWNQQVTQMALWAIMAAPLFMSNDLRHISPQAKALLQDKDVIAINQDPLGKQGYQLRQGDNFEVWERPLSGLAWAVAMINRQEIGGPRSYTIAVACLGKGVACNPACFITQLLPVKRKLGFYEWTSRLRSHINPTGTVLLQLENTMQMSLKDLL
With B1 the “Absolute increase (% WT)” value [1] was 11.1 % WT, the Relative increase [1] was 1.4 and the “Baseline α-Gal A activity (% WT)” value [1] was 23.5 ± 1.3 % WT. The “Baseline α-Gal A activity” value [1] was 10189 ± 1078 nmol/mg/h, the “10 μM migalastat α-Gal A activity” value [1] was 14546 ± 1141 nmol/mg/h and the “10 μM migalastat α-Gal A activity (% WT)” value ([1]; 5 days) was 34.7 ± 1.6 % WT.

B2: V376M (protein)
chain: B1 chain with C371S, V376M
In the case of B2, the “Absolute increase (% WT)” value [1] is reported as 20.1 % WT, the Relative increase [1] is reported as 1.3 and the “Baseline α-Gal A activity (% WT)” value [1] is reported as 79.3 ± 2.7 % WT. For the same molecule, the “Baseline α-Gal A activity” value [1] was 27547 ± 1431 nmol/mg/h, the “10 μM migalastat α-Gal A activity” value [1] was 34563 ± 1762 nmol/mg/h and the “10 μM migalastat α-Gal A activity (% WT)” value ([1]; 5 days) was 99.4 ± 3.2 % WT.

B3: K374R (protein)
chain: B1 chain with C371S, K374R
For B3, the “Absolute increase (% WT)” value [1] was 17.9 % WT, the Relative increase [1] was 1.2 and the “Baseline α-Gal A activity (% WT)” value [1] was 74.3 ± 4.8 % WT. The “Baseline α-Gal A activity” value [1] was 27984 ± 2321 nmol/mg/h, the “10 μM migalastat α-Gal A activity” value [1] was 34403 ± 2426 nmol/mg/h and the “10 μM migalastat α-Gal A activity (% WT)” value ([1]; 5 days) was 92.2 ± 4.9 % WT.

B4: A377G (protein)
chain: B1 chain with C371S, A377G
For B4, the “Absolute increase (% WT)” value [1] was 16.1 % WT, the Relative increase [1] was 1.2 and the “Baseline α-Gal A activity (% WT)” value [1] was 71.6 ± 2.5 % WT. The “Baseline α-Gal A activity” value [1] was 26583 ± 1072 nmol/mg/h, the “10 μM migalastat α-Gal A activity” value [1] was 32517 ± 981 nmol/mg/h and the “10 μM migalastat α-Gal A activity (% WT)” value ([1]; 5 days) was 87.7 ± 2.3 % WT.

B5: V376L (protein)
chain: B1 chain with C371S, V376L
For B5, the “Absolute increase (% WT)” value [1] was 19.9 % WT, the Relative increase [1] was 1.3 and the “Baseline α-Gal A activity (% WT)” value [1] was 82.4 ± 3.4 % WT. For the same molecule, the “Baseline α-Gal A activity” value [1] was 27275 ± 1181 nmol/mg/h, the “10 μM migalastat α-Gal A activity” value [1] was 34152 ± 1845 nmol/mg/h and the “10 μM migalastat α-Gal A activity (% WT)” value ([1]; 5 days) was 102.3 ± 4.2 % WT.

B6: K374T (protein)
chain: B1 chain with C371S, K374T
For B6, the “Absolute increase (% WT)” value [1] was 30.2 % WT, the Relative increase [1] was 1.6 and the “Baseline α-Gal A activity (% WT)” value [1] was 46.1 ± 2.8 % WT. For the same molecule, the “Baseline α-Gal A activity” value [1] was 16418 ± 1050 nmol/mg/h, the “10 μM migalastat α-Gal A activity” value [1] was 26614 ± 1659 nmol/mg/h and the “10 μM migalastat α-Gal A activity (% WT)” value ([1]; 5 days) was 76.2 ± 5.7 % WT.

B7: G375R (protein)
chain: B1 chain with C371S, G375R
For B7, the “Absolute increase (% WT)” value [1] was 18.7 % WT, the Relative increase [1] was 1.4 and the “Baseline α-Gal A activity (% WT)” value [1] was 41.7 ± 1.9 % WT. The “Baseline α-Gal A activity” value [1] was 15302 ± 1157 nmol/mg/h, the “10 μM migalastat α-Gal A activity” value [1] was 22033 ± 1442 nmol/mg/h and the “10 μM migalastat α-Gal A activity (% WT)” value ([1]; 5 days) was 60.4 ± 2.1 % WT.

B8: A377P (protein)
chain: B1 chain with C371S, A377P
With B8 the “Absolute increase (% WT)” value [1] was 17.2 % WT, the Relative increase [1] was 1.3 and the “Baseline α-Gal A activity (% WT)” value [1] was 59.4 ± 2.6 % WT. For the same molecule, the “Baseline α-Gal A activity” value [1] was 21842 ± 930 nmol/mg/h, the “10 μM migalastat α-Gal A activity” value [1] was 28189 ± 1292 nmol/mg/h and the “10 μM migalastat α-Gal A activity (% WT)” value ([1]; 5 days) was 76.6 ± 3.5 % WT.

B9: K374I (protein)
chain: B1 chain with C371S, K374I
With B9 the “Absolute increase (% WT)” value [1] was 21.9 % WT, the Relative increase [1] was 2.0 and the “Baseline α-Gal A activity (% WT)” value [1] was 22.3 ± 1.3 % WT. The “Baseline α-Gal A activity” value [1] was 8194 ± 506 nmol/mg/h, the “10 μM migalastat α-Gal A activity” value [1] was 16076 ± 936 nmol/mg/h and the “10 μM migalastat α-Gal A activity (% WT)” value ([1]; 5 days) was 44.2 ± 2.9 % WT.

B10: G373C (protein)
chain: B1 chain with C371S, G373C
With B10 the “Absolute increase (% WT)” value [1] was 8.7 % WT, the Relative increase [1] was 3.2 and the “Baseline α-Gal A activity (% WT)” value [1] was 4.3 ± 0.2 % WT. The “Baseline α-Gal A activity” value [1] was 1744 ± 92 nmol/mg/h, the “10 μM migalastat α-Gal A activity” value [1] was 5543 ± 547 nmol/mg/h and the “10 μM migalastat α-Gal A activity (% WT)” value ([1]; 5 days) was 13 ± 0.9 % WT.

B11: A377S (protein)
chain: B1 chain with C371S, A377S
In the case of B11, the “Absolute increase (% WT)” value [1] is reported as 13.7 % WT, the Relative increase [1] is reported as 1.3 and the “Baseline α-Gal A activity (% WT)” value [1] is reported as 48.1 ± 2.3 % WT. The “Baseline α-Gal A activity” value [1] was 17737 ± 860 nmol/mg/h, the “10 μM migalastat α-Gal A activity” value [1] was 22793 ± 999 nmol/mg/h and the “10 μM migalastat α-Gal A activity (% WT)” value ([1]; 5 days) was 61.8 ± 2.7 % WT.

B12: K374E (protein)
chain: B1 chain with C371S, K374E
With B12 the “Absolute increase (% WT)” value [1] was 14.1 % WT, the Relative increase [1] was 1.3 and the “Baseline α-Gal A activity (% WT)” value [1] was 49.9 ± 3.6 % WT. For the same molecule, the “Baseline α-Gal A activity” value [1] was 19699 ± 1718 nmol/mg/h, the “10 μM migalastat α-Gal A activity” value [1] was 24879 ± 2423 nmol/mg/h and the “10 μM migalastat α-Gal A activity (% WT)” value ([1]; 5 days) was 64 ± 5.7 % WT.

B13: V376G (protein)
chain: B1 chain with C371S, V376G
With B13 the “Absolute increase (% WT)” value [1] was 28.9 % WT, the Relative increase [1] was 1.3 and the “Baseline α-Gal A activity (% WT)” value [1] was 93.9 ± 4.6 % WT. The “Baseline α-Gal A activity” value [1] was 33903 ± 2255 nmol/mg/h, the “10 μM migalastat α-Gal A activity” value [1] was 44774 ± 2982 nmol/mg/h and the “10 μM migalastat α-Gal A activity (% WT)” value ([1]; 5 days) was 122.9 ± 5.6 % WT.

B14: V376E (protein)
chain: B1 chain with C371S, V376E
In the case of B14, the “Absolute increase (% WT)” value [1] is reported as 21.9 % WT, the Relative increase [1] is reported as 1.4 and the “Baseline α-Gal A activity (% WT)” value [1] is reported as 74 ± 4.6 % WT. The “Baseline α-Gal A activity” value [1] was 22992 ± 924 nmol/mg/h, the “10 μM migalastat α-Gal A activity” value [1] was 30929 ± 1635 nmol/mg/h and the “10 μM migalastat α-Gal A activity (% WT)” value ([1]; 5 days) was 95.9 ± 3.8 % WT.

B15: G373A (protein)
chain: B1 chain with C371S, G373A
With B15 the “Absolute increase (% WT)” value [1] was 12.4 % WT, the Relative increase [1] was 1.3 and the “Baseline α-Gal A activity (% WT)” value [1] was 40.8 ± 1.5 % WT. For the same molecule, the “Baseline α-Gal A activity” value [1] was 14426 ± 630 nmol/mg/h, the “10 μM migalastat α-Gal A activity” value [1] was 18622 ± 1289 nmol/mg/h and the “10 μM migalastat α-Gal A activity (% WT)” value ([1]; 5 days) was 53.2 ± 3.7 % WT.

B16: S371T (protein)
chain: B1 chain with C371T
For B16, the “Absolute increase (% WT)” value [1] was 26.1 % WT, the Relative increase [1] was 1.3 and the “Baseline α-Gal A activity (% WT)” value [1] was 65 ± 3.3 % WT. For the same molecule, the “Baseline α-Gal A activity” value [1] was 27962 ± 2785 nmol/mg/h, the “10 μM migalastat α-Gal A activity” value [1] was 37065 ± 2351 nmol/mg/h and the “10 μM migalastat α-Gal A activity (% WT)” value ([1]; 5 days) was 91.1 ± 5 % WT.

From patent US11833164B2, “Methods of treating Fabry disease in patients having a mutation in the GLA gene” (Amicus Therapeutics, Inc., priority 2019, dated 2023)
